This is an account of results in paper PMC6434538.

Where two headings read alike, the source gives them in different places.

Data set [1] addresses T1, RIG-I wild type (UniProt O95786 1-925).
T1 sequence: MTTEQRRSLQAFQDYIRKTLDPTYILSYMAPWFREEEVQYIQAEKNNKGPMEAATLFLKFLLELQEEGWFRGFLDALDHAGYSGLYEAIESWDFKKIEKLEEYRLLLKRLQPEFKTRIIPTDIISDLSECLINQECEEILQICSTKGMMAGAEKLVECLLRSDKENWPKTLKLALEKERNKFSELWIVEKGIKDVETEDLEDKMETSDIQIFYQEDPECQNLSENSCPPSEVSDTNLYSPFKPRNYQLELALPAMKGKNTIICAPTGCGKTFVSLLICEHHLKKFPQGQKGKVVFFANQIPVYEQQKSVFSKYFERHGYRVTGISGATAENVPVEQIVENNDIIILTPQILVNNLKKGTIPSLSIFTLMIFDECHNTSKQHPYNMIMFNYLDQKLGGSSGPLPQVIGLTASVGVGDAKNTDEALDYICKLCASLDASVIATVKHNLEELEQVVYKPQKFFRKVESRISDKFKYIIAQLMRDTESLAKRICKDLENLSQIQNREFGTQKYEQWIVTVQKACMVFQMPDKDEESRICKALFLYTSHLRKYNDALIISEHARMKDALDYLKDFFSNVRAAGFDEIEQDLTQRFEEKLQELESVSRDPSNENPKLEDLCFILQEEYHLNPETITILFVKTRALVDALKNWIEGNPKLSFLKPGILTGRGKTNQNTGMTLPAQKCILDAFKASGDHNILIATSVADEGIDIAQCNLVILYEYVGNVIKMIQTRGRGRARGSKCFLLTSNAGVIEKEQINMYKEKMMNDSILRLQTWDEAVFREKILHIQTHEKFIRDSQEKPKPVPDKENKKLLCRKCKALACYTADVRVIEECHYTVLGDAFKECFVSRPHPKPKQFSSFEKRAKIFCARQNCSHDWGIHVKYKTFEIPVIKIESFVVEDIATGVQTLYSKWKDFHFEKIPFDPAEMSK
Briefly: ATPase titration or fluorescence titration.

Data set [2] has as its target T1, RIG-I wild type. Briefly: fluorescence intensity titration.
In data set [3] the target is T1, RIG-I wild type. The data set is described as follows: fluorescence intensity titration. The source holds these as a separate data set.

B1: 5'ppp dsRNA 27 bp (dsRNA)
RNA 1: AUACGUCCUGAUAGUUAGUAUCCAUCG
RNA 2: CGAUGGAUACUAACUAUCAGGACGUAU
modifications: 5'-triphosphate on strand 1
One may read the Kd as the equilibrium constant for the complex coming apart. A high value points to lower affinity. For the molecule B1, the Kd with RIG-I wild type [1] came out at 2.5 nM.

B2: 5'OH dsRNA 27 bp (dsRNA)
RNA 1: AUACGUCCUGAUAGUUAGUAUCCAUCG
RNA 2: CGAUGGAUACUAACUAUCAGGACGUAU
modifications: 5'OH
Consider B2, for which the binding signal with RIG-I wild type [2] is 1.5 fold higher Kd than 5'ppp dsRNA.

B3: 3'ovg dsRNA (dsRNA)
RNA 1: ACGUCCUGAUAGUUAGUAUCCAUCG
RNA 2: CGAUGGAUACUAACUAUCAGGACGUAU
modifications: 5'OH
As to B3, the binding signal was 7 fold higher Kd than 5'ppp dsRNA with RIG-I wild type [2] and 50 fold higher Kd than 5'ppp dsRNA with RIG-I wild type [3].
